The text below walks through data of US20250057976A1.

A value given as a limit tells only on which side of the number the result lay.

One test addresses IL31RA (mouse) (UniProt Q8K5B1). Briefly: cell-based or functional assay.
In another test the target is TrkA (mouse) (UniProt Q3UFB7). Put plainly: cell-based or functional assay.
Chain of UniProt Q3UFB7 (Q3UFB7 34-799): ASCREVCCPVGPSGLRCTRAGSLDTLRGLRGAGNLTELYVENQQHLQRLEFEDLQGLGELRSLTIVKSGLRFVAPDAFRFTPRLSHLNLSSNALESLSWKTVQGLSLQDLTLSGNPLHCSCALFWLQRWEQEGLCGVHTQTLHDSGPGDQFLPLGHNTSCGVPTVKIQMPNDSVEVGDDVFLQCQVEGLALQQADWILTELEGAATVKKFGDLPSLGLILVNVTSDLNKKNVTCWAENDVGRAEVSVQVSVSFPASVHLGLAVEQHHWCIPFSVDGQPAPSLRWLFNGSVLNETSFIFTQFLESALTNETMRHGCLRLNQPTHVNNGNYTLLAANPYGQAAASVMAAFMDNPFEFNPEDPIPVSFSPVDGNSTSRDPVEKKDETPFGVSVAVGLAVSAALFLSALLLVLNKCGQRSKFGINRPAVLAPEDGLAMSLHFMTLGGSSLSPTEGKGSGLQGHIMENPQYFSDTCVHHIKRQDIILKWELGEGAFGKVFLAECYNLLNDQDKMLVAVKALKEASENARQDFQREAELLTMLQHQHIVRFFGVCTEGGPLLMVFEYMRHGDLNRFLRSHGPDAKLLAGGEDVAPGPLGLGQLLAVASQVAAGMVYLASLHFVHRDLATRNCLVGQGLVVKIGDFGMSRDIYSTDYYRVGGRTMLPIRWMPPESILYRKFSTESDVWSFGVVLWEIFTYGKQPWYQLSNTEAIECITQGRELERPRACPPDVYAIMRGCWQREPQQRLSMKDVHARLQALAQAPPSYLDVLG

Chain of UniProt Q8K5B1 (Q8K5B1 19-716): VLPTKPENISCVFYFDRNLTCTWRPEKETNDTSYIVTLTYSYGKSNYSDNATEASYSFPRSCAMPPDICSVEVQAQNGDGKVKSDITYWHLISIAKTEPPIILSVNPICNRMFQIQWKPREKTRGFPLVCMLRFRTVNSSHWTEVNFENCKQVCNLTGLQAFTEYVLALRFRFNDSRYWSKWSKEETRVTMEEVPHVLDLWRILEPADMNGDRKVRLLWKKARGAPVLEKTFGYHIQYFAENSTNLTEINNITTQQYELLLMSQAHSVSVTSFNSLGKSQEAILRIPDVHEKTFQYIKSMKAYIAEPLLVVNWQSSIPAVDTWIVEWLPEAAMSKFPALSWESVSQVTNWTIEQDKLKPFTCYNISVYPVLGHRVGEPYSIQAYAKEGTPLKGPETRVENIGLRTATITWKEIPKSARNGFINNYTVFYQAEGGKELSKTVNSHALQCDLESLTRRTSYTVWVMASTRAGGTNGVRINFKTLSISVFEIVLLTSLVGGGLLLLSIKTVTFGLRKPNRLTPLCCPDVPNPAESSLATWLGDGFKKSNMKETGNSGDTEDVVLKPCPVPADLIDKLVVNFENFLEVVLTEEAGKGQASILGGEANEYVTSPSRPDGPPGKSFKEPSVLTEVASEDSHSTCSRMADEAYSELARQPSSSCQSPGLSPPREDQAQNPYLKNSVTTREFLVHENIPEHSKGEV

In the test with IL31RA (mouse), “IL31^K134A-SNAP::AAV2-ΔHSPG (from UniProt P03135 1-735)” displayed an overlap of virally infected cells with K14 positive keratinocytes, skin of wildtype mice, subcutaneous 3E+10 VG of 100 percent.
In the test with TrkA (mouse), “NGF^R121W-SNAP::AAV2-ΔHSPG (from UniProt P03135 1-735)” registered a TrkA positive DRG cells infected after retro-orbital injection of 3E+10 VG of 80%; an infected DRG cells that are TrkA positive after retro-orbital injection of 3E+10 VG of 83%; an overlap of virally infected (tdTomato) sensory neurons with TrkA antibody staining, trigeminal ganglia, 3 weeks after IV injection greater than 80%.
